To fix the notation:
T1: human beta-Klotho (human, UniProt Q86Z14 1-1044)
T1 sequence (looked up): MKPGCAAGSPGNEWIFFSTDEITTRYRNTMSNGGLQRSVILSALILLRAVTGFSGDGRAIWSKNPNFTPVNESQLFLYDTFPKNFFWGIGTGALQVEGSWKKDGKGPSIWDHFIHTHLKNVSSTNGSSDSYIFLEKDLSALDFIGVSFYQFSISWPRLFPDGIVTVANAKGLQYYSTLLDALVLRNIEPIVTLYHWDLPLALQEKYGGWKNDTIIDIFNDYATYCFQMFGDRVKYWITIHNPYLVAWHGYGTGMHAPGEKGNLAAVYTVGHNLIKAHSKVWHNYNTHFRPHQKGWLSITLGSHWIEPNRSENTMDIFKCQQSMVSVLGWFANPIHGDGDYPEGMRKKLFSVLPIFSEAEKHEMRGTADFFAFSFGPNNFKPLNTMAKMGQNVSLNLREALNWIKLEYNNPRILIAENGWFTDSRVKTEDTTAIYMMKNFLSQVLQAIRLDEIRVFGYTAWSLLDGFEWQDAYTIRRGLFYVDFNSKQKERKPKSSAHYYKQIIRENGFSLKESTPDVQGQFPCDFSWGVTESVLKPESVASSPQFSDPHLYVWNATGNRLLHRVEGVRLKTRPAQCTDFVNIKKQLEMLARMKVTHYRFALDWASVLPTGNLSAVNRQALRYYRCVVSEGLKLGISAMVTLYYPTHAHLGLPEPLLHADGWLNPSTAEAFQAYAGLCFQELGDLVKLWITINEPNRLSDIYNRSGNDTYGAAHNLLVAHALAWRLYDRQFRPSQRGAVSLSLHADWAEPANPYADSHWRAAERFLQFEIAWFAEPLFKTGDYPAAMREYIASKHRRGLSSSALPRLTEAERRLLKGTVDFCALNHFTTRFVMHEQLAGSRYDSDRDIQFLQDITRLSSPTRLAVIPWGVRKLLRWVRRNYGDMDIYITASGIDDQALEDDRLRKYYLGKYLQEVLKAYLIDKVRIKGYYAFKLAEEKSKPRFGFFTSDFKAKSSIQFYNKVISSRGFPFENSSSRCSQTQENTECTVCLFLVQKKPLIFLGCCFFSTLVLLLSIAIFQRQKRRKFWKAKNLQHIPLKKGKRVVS

B1: (K56R, K59R, K69R, N121Q, K122R, L166F, S167G, M168L, 169aT, P171L, S172E, Q173A, G174V, Y179F, A180E, S181R) FGF21 (ligand)
chain: HPIPDSSPLLQFGGQVRQRYLYTDDAQQTEAHLEIREDGTVGGAADQSPESLLQLRALRPGVIQILGVRTSRFLCQRPDGALYGSLHFDPEACSFRELLLEDGYNVYQSEAHGLPLHLPGQRSPHRDPAPRGPARFLPLPGLPPALPEPPGILAPQPPDVGSSDPFGLVTGLEAVRSPSFER
B2: (K56R, K59R, K69R, K122R, L166F, S167G, M168L, 169aT, P171L, S172E, Q173A, G174V, Y179F, A180E, S181R) Ser-FGF21 (ligand)
chain: SHPIPDSSPLLQFGGQVRQRYLYTDDAQQTEAHLEIREDGTVGGAADQSPESLLQLRALRPGVIQILGVRTSRFLCQRPDGALYGSLHFDPEACSFRELLLEDGYNVYQSEAHGLPLHLPGNRSPHRDPAPRGPARFLPLPGLPPALPEPPGILAPQPPDVGSSDPFGLVTGLEAVRSPSFER
B3: (-1S, 71C, 166F, 167G, 168L, 169aT, 171L, 172E, 173A, 174V, 179F, 180E, 181K) FGF21 derivative of Example 18 (ligand)
chain: SHPIPDSSPLLQFGGQVRQRYLYTDDAQQTEAHLEIREDGTVGGAADQSPESLLQLKALKPGVIQILGVKTCRFLCQRPDGALYGSLHFDPEACSFRELLLEDGYNVYQSEAHGLPLHLPGNKSPHRDPAPRGPARFLPLPGLPPALPEPPGILAPQPPDVGSSDPFGLVTGLEAVRSPSFEK
modifications: S-71-({2-[2-(2-{2-[2-(2-{2-[(S)-4-carboxy-4-(17-carboxy-heptadecanoylamino)-butyrylamino]-ethoxy}-ethoxy)-acetylamino]-ethoxy}-ethoxy)-acetyl-amino]-ethylcarbamoyl}-methyl) on the thiol of Cys71
B4: (K56R, 59R, 69R, 122R, 166F, 167G, 168L, 169aT, 171L, 172E, 173A, 174V, 179F, 180E, 181R) Ser-FGF21 derivative of Example 50 (ligand)
chain: SHPIPDSSPLLQFGGQVRQRYLYTDDAQQTEAHLEIREDGTVGGAADQSPESLLQLRALRPGVIQILGVRTSRFLCQRPDGALYGSLHFDPEACSFRELLLEDGYNVYQSEAHGLPLHLPGNRSPHRDPAPRGPARFLPLPGLPPALPEPPGILAPQPPDVGSSDPFGLVTGLEAVRSPSFER
modifications: N-alpha-1-[2-(2-{2-[2-(2-{2-[(S)-4carboxy-4-(17-carboxy-heptadecanoylamino)-butyrylamino]-ethoxy}-ethoxy)-acetylamino]-ethoxy}-ethoxy)-acetyl] on the N-terminal alpha amino group
B5: (S71C, L166F, S167G, M168L, 169aT, P171L, S172E, Q173A, G174V, Y179F, A180E, S181K) Ser-FGF21 (ligand)
chain: SHPIPDSSPLLQFGGQVRQRYLYTDDAQQTEAHLEIREDGTVGGAADQSPESLLQLKALKPGVIQILGVKTCRFLCQRPDGALYGSLHFDPEACSFRELLLEDGYNVYQSEAHGLPLHLPGNKSPHRDPAPRGPARFLPLPGLPPALPEPPGILAPQPPDVGSSDPFGLVTGLEAVRSPSFEK
B6: (-1A, 71C, 121Q, 166F, 167G, 168L, 169aT, 171L, 172E, 173A, 174V, 179F, 180E, 181K) FGF21 derivative of Example 17 (ligand)
chain: AHPIPDSSPLLQFGGQVRQRYLYTDDAQQTEAHLEIREDGTVGGAADQSPESLLQLKALKPGVIQILGVKTCRFLCQRPDGALYGSLHFDPEACSFRELLLEDGYNVYQSEAHGLPLHLPGQKSPHRDPAPRGPARFLPLPGLPPALPEPPGILAPQPPDVGSSDPFGLVTGLEAVRSPSFEK
modifications: S-71-({2-[2-(2-{2-[2-(2-{2-[(S)-4-carboxy-4-(17-carboxy-heptadecanoylamino)-butyrylamino]-ethoxy}-ethoxy)-acetylamino]-ethoxy}-ethoxy)-acetylamino]-ethylcarbamoyl}-methyl) on the thiol of Cys71
B7: (K56R, K59R, K69R, D102E, N121Q, K122R, M168L) GSGSG-FGF21 (ligand)
chain: GSGSGHPIPDSSPLLQFGGQVRQRYLYTDDAQQTEAHLEIREDGTVGGAADQSPESLLQLRALRPGVIQILGVRTSRFLCQRPDGALYGSLHFDPEACSFRELLLEEGYNVYQSEAHGLPLHLPGQRSPHRDPAPRGPARFLPLPGLPPALPEPPGILAPQPPDVGSSDPLSLVGPSQGRSPSYAS
B8: (-5G, -4S, -3G, -2S, -1G, K56R, 59R, 69R, 102E, 121Q, 122R, 168L) FGF21 derivative of Example 55 (ligand)
chain: GSGSGHPIPDSSPLLQFGGQVRQRYLYTDDAQQTEAHLEIREDGTVGGAADQSPESLLQLRALRPGVIQILGVRTSRFLCQRPDGALYGSLHFDPEACSFRELLLEEGYNVYQSEAHGLPLHLPGQRSPHRDPAPRGPARFLPLPGLPPALPEPPGILAPQPPDVGSSDPLSLVGPSQGRSPSYAS
modifications: N-alpha-1-[4-(16-1H-tetrazol-5-yl-hexadecanoylsulfamoyl)-butyryl] on the N-terminal alpha amino group
B9: [-5G, -4S, -3G, -2S, -1G, K56R, 59R, 69R, 102E, 121Q, 122R, 168L] FGF21 derivative of Example 52 (ligand)
chain: GSGSGHPIPDSSPLLQFGGQVRQRYLYTDDAQQTEAHLEIREDGTVGGAADQSPESLLQLRALRPGVIQILGVRTSRFLCQRPDGALYGSLHFDPEACSFRELLLEEGYNVYQSEAHGLPLHLPGQRSPHRDPAPRGPARFLPLPGLPPALPEPPGILAPQPPDVGSSDPLSLVGPSQGRSPSYAS
modifications: N-alpha-1-[2-(2-{2-[2-(2-{2-[(S)-4-carboxy-4-(17-carboxy-heptadecanoylamino)-butyrylamino]-ethoxy}-ethoxy)-acetylamino]-ethoxy}-ethoxy)-acetyl] on the N-terminal alpha amino group

The assay has as its target T1, human beta-Klotho. Description: cell-based or functional assay.
As for B1, the “pERK-HEK293-Beta-klotho without HSA [EC50 (nM)] Median Value” is 3 nM.
Next, B2: 3.8 nM.
Next, B3: 2.5 nM; B4: 2 nM; B5: 2.2 nM.
For B6 the value was 3 nM; for B7, 6.6 nM; for B8, 2 nM.
For the molecule B9, the “pERK-HEK293-Beta-klotho without HSA [EC50 (nM)] Median Value” stood at 11 nM.
